Broadly, the Kd is the equilibrium constant for the complex coming apart. In general, koff refers to the first-order rate constant of dissociation. For orientation: kon means a measure of how fast the partners come together. A higher kon goes with fast association.

Assay [1] concerns the target T1, ErbB2 (UniProt P04626 23-652, limits assumed). The assay can be described thus: cell-based or functional assay.
Assay [2] deals with T1, ErbB2. As to the kind of experiment: BIAcore 2000 SPR, ErbB2 amine-coupled to the chip, antibody injected. (In general: SPR reads the build-up and loss of mass on a sensor chip optically.)
Assay [3] addresses T1, ErbB2. As to the kind of experiment: BIAcore 2000 SPR, ratio of KD values.

Changes are numbered by the printed parent chain.

B1: humanized antibody A091 (antibody, V domains shown)
VH: EVQLVESGGGLVQPGGSLRLSCAASGFNIKDTYIHWVRQARGKGLEWVARIYPTNGYTRYADSVKGRFTISADTSKNTAYLQMNSLRAEDTAVYYCSRWGGWGFYAFALWGQGTLVTVSS
VL: DIQMTQSPSSLSASVGDRVTITCRASQDVNTAVAWYQQKPGKAPKLLIYTTTWPYSGVPSRFSGSRSGTDFSLTISSLQPEDFATYYCQQYYNTPVTFGQGTKVEIK
notes: Expressed as a whole humanized antibody in CHO-s cells
For B1, the “inhibition of NCI-N87 cell proliferation (WST-8, 6 days), IC50” value with ErbB2 [1] was 10.3 nM. In the assay with ErbB2 [2], this molecule came in with an equilibrium dissociation constant (Kd) of 1.07 nM, a koff of 0.000688 s⁻¹ and a kon of 644000 M⁻¹ s⁻¹.

B2: humanized antibody A058 (antibody, V domains shown)
VH: B1 VH with R41P
VL: B1 VL with T50S, T51A, T52S, W53F, P54L, S72T, Y91H, N93Q, V96A, T97S
notes: as for B1
As for B2, the “inhibition of NCI-N87 cell proliferation (WST-8, 6 days), IC50” value with ErbB2 [1] worked out at 4.3 nM. Moreover, in the assay with ErbB2 [2], the Kd is 0.533 nM, the koff is 0.000278 s⁻¹ and the on-rate (kon) amounted to 522000 M⁻¹ s⁻¹.

B3: humanized antibody AH16 (antibody, V domains shown)
VH: B1 VH with R41P, G100N, G101A, W102K, A106S, A108V, L109H
VL: not shown
notes: as for B1
B3: the “fold increase of affinity against the parent antibody 4D5” value with ErbB2 [3] was about 2 fold. In the assay with ErbB2 [2], this molecule gave an equilibrium dissociation constant (Kd) of 0.297 nM, a koff of 0.00012 s⁻¹ and a kon of 404000 M⁻¹ s⁻¹.

The values are drawn from patent US20150104443A1 (CHONG KUN DANG PHARMACEUTICAL, published 2015).
